Experimental data published in patent publication US7666414B2.

Target: prostate specific membrane antigen (PSMA) on LNCaP cells (human) (UniProt Q04609)

## irrelevant IgG antibody
  tumor uptake of the 131I-labelled antibody in nude mice bearing LNCaP tumors, one day post injection (% injected dose/gram) (% injected dose/gram): 4.41
